Bridge positions count the residues as written; N and C are the ends. Square brackets hold non-standard residues; d marks the D form. Ends that are not written are not given here. Bip = N[C@@H](Cc1ccc(-c2ccccc2)cc1)C(=O)O; 1Nal = N[C@@H](Cc1cccc2ccccc12)C(=O)O; 2Nal = N[C@@H](Cc1ccc2ccccc2c1)C(=O)O; NMeR = CN[C@@H](CCCNC(=N)N)C(=O)O; Tic = O=C(O)[C@@H]1Cc2ccccc2CN1; β3hE = N[C@@H](CCC(=O)O)CC(=O)O; NMeK = CN[C@@H](CCCCN)C(=O)O; Pen = CC(C)(S)[C@H](N)C(=O)O; dNMeK = CN[C@H](CCCCN)C(=O)O
Tests used:
[1] = target: T1, α4β7 integrin on human cells (human, UniProt P13612 34-1032; P26010 20-798); assay: cell-based or functional assay
[2] = target: α4β1 (R&D Systems #5668-A4) (UniProt P13612); assay: α4β1-VCAM competition ELISA
[3] = target: rh integrin α4β7 (R&D Systems #5397-A30) (human) (UniProt P13612); assay: α4β7-MAdCAM competition ELISA
[4] = target: T2, α4β7 integrin on mouse TK1 cells (mouse, UniProt Q00651 41-1039; P26011 20-806); assay: cell-based or functional assay
[5] = target: T2, α4β7 integrin on mouse TK1 cells; assay: cell-based or functional assay; remark: listed apart in the source
[6] = target: T1, α4β7 integrin on human cells; assay: cell-based or functional assay; remark: listed apart in the source
[7] = target: α4β1 integrin on human cells (human, UniProt P13612 34-1032; P05556 21-798); assay: cell-based or functional assay

T2 sequence (Q00651 41-1039, chain 1 of 2): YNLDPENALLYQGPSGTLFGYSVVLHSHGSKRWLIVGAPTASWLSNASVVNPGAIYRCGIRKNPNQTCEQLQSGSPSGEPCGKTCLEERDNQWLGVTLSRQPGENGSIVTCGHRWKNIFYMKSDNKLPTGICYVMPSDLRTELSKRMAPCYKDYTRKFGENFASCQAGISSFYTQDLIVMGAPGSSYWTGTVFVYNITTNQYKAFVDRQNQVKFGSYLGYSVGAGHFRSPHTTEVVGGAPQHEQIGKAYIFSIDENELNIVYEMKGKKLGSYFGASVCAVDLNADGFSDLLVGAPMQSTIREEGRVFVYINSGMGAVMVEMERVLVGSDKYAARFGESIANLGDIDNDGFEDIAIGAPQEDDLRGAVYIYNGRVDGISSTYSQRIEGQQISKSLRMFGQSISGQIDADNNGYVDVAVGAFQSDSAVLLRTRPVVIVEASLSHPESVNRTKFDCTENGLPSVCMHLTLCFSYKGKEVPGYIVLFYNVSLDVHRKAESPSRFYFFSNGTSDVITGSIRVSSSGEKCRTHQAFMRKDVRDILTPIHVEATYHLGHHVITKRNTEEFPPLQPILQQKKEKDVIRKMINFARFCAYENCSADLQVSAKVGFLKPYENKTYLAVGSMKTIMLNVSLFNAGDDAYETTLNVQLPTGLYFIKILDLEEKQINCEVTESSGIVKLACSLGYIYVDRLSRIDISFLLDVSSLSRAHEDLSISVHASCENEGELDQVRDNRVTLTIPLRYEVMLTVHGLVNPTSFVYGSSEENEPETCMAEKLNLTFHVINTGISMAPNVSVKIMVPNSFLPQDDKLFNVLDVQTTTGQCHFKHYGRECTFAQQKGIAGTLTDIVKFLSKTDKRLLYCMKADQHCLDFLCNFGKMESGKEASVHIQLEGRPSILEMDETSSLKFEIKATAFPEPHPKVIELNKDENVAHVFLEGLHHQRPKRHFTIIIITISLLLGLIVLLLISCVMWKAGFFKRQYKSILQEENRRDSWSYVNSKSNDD
T2 sequence (P26011 20-806, chain 2 of 2): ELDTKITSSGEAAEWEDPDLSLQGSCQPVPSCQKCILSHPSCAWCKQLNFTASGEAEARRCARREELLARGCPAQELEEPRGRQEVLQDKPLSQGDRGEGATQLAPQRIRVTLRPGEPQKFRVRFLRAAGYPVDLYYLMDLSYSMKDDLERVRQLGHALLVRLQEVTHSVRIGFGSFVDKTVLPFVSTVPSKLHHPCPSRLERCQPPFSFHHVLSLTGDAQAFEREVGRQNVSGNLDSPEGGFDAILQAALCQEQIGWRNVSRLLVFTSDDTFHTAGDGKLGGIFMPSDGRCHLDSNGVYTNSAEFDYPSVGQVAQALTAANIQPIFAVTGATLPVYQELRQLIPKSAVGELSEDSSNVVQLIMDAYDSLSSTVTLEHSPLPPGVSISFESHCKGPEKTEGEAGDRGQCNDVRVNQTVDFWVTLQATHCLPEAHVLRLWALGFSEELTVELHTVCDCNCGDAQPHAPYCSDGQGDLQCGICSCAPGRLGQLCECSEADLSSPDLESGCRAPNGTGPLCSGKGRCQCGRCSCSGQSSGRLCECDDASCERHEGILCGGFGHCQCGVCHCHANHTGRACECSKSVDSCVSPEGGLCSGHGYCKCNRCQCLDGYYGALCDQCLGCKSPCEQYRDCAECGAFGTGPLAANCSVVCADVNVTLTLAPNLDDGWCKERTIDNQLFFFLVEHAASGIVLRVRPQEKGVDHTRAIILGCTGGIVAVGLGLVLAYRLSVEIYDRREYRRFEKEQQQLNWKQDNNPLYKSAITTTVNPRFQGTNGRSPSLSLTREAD

B1: SEQ ID NO 24 (peptide)
peptide: Ac-[Pen][NMeR]SDTL[Pen][1Nal]E[dK]-NH2
modifications: disulfide 1-7 (inferred); also: homodimer via DIG
B1 was tested, and the “α4β7 cell (Hu) IC50” value [1] was ≤ 10 nM, the IC50 [2] was > 100 nM and the IC50 [3] was < 10 nM.

B2: SEQ ID NO 137 (peptide)
peptide: Ac-[Pen][NMeR]SDTL[Pen][2Nal][β3hE][dK]-NH2
modifications: disulfide 1-7 (inferred); also: homodimer via DIG
With B2 the “α4β7 cell (Hu) IC50” value [1] was ≤ 10 nM, the IC50 [2] was > 1000 nM and the IC50 [3] was < 10 nM.

B3: SEQ ID NO 13 (peptide)
peptide: Ac-[Pen][NMeR]SDTL[Pen][2Nal][dE][dNMeK]-NH2
modifications: disulfide 1-7 (inferred)
For B3, the “α4β7 cell (Hu) IC50” value [1] was > 100 nM and the IC50 [3] was > 10 nM.

B4: SEQ ID NO 154 (peptide)
peptide: Ac-[Pen][NMeR]SDTL[Pen][Tic][β3hE]-NH2
modifications: disulfide 1-7 (inferred)
In the case of B4, the “α4β7 cell(Mu) IC50” value [4] is reported as > 1000 nM, the “α4β7 cell (Hu) IC50” value [1] is reported as > 100 nM and the IC50 [2] is reported as > 1000 nM.

B5: SEQ ID NO 142 (peptide)
peptide: Ac-[Pen][NMeR]SDTL[Pen][1Nal][β3hE][NMeK]-NH2
modifications: disulfide 1-7 (inferred); also: homodimer via DIG
In the case of B5, the “PBMC IC50” value [1] is reported as > 50 nM, the “α4β7 cell (Hu) IC50” value [1] is reported as ≤ 10 nM and the IC50 [2] is reported as > 500 nM. The IC50 [3] was < 10 nM.

B6: SEQ ID NO 210 (peptide)
peptide: Ac-[Pen][NMeR]SDTL[Pen][2Nal]E[dK]-NH2
modifications: disulfide 1-7 (inferred)
In the case of B6, the IC50 [2] is reported as 200 nM, the IC50 [3] is reported as 11 nM and the “Cell Adhesion α4β7 Mouse IC50” value [5] is reported as 60 nM. For the same binder, the “Cell Adhesion PBMC IC50” value [6] was 517 nM, the “Cell Adhesion α4β7 IC50” value [6] was 40 nM and the “Cell Adhesion α4β1 IC50” value [7] was > 100000 nM.

B7: SEQ ID NO 155 (peptide)
peptide: Ac-[Pen][NMeR]SDTL[Pen][2Nal][b‑H‑E]-NH2
modifications: disulfide 1-7 (inferred)
B7 was tested, and the “α4β7 cell(Mu) IC50” value [4] was > 25 nM, the “α4β7 cell (Hu) IC50” value [1] was > 25 nM and the IC50 [2] was > 1000 nM.

B8: SEQ ID NO 143 (peptide)
peptide: [Pen][NMeR]SDTL[Pen][2Nal]E
modifications: disulfide 1-7 (inferred); not fully specified (bridges); printed as Cyclo-[Pen-(N-Me-R)-S-D-T-L-Pen-(2-Nal)-E], disulfide
In the case of B8, the “α4β7 cell (Hu) IC50” value [1] is reported as > 10000 nM and the IC50 [3] is reported as 250 nM.

B9: SEQ ID NO 32 (peptide)
peptide: Ac-[Pen][NMeR]SDTL[Pen][1Nal][dE][dK]-NH2
modifications: disulfide 1-7 (inferred); also: homodimer via DIG linker
B9 was tested, and the “α4β7 cell (Hu) IC50” value [1] was > 10 nM, the IC50 [2] was > 100 nM and the IC50 [3] was < 10 nM.

B10: SEQ ID NO 44 (peptide)
peptide: Ac-[Pen][NMeR]SDTL[Pen][1Nal]E[dNMeK]-NH2
modifications: disulfide 1-7 (inferred); also: homodimer via DIG linker
For B10, the “α4β7 cell(Mu) IC50” value [4] was ≤ 10 nM, the “α4β7 cell (Hu) IC50” value [1] was ≤ 10 nM and the IC50 [2] was > 100 nM. For the same binder, the IC50 [3] was < 10 nM.

B11: SEQ ID NO 150 (peptide)
peptide: Ac-[Pen][NMeR]SDTL[Pen][Bip][b‑H‑E][NMeK]-NH2
modifications: disulfide 1-7 (inferred); also: homodimer via DIG
B11 was tested, and the “α4β7 cell(Mu) IC50” value [4] was ≤ 10 nM, the “α4β7 cell (Hu) IC50” value [1] was ≤ 10 nM and the IC50 [2] was > 1000 nM. For the same binder, the IC50 [3] was < 10 nM.

B12: SEQ ID NO 41 (peptide)
peptide: Ac-[Pen][NMeR]SDTL[Pen][2Nal]E[dNMeK]-NH2
modifications: disulfide 1-7 (inferred); also: homodimer via DIG linker
B12 was tested, and the “α4β7 cell (Hu) IC50” value [1] was ≤ 10 nM, the IC50 [2] was > 100 nM and the IC50 [3] was < 10 nM.

B13: SEQ ID NO 18 (peptide)
peptide: Ac-[Pen][NMeR]SDTL[Pen][1Nal]E[dNMeK]-NH2
modifications: disulfide 1-7
SMILES: CC(=O)N[C@@H]1C(=O)N(C)[C@@H](CCCNC(=N)N)C(=O)N[C@@H](CO)C(=O)N[C@@H](CC(=O)O)C(=O)N[C@@H]([C@@H](C)O)C(=O)N[C@@H](CC(C)C)C(=O)N[C@H](C(=O)N[C@@H](Cc2cccc3ccccc23)C(=O)N[C@@H](CCC(=O)O)C(=O)N(C)[C@H](CCCCN)C(N)=O)C(C)(C)SSC1(C)C
In the case of B13, the IC50 [2] is reported as > 500 nM and the IC50 [3] is reported as > 10 nM.

B14: SEQ ID NO 138 (peptide)
peptide: Ac-[Pen][NMeR]SDTL[Pen][2Nal]E[NMeK]-NH2
modifications: disulfide 1-7 (inferred); also: homodimer via DIG
For B14, the “α4β7 cell (Hu) IC50” value [1] was > 10 nM and the IC50 [3] was > 10 nM.

B15: SEQ ID NO 23 (peptide)
peptide: Ac-[Pen][NMeR]SDTL[Pen][2Nal]Y[dK]-NH2
modifications: disulfide 1-7 (inferred); also: homodimer via DIG
For B15, the “α4β7 cell (Hu) IC50” value [1] was ≤ 10 nM and the IC50 [2] was > 100 nM.

B16: SEQ ID NO 134 (peptide)
peptide: Ac-[Pen][NMeR]SDTL[Pen][Bip]E[dK]-NH2
modifications: disulfide 1-7 (inferred); also: homodimer via DIG
In the case of B16, the “α4β7 cell (Hu) IC50” value [1] is reported as ≤ 10 nM, the IC50 [2] is reported as > 100 nM and the IC50 [3] is reported as < 10 nM.

B17: SEQ ID NO 86 (peptide)
peptide: Ac-[Pen][NMeR]SDTL[Pen]WE(OMe)[dK]-NH2
modifications: disulfide 1-7 (inferred); also: homodimer linked by DIG
With B17 the “α4β7 cell(Mu) IC50” value [4] was ≤ 10 nM and the “α4β7 cell (Hu) IC50” value [1] was ≤ 10 nM.

B18: SEQ ID NO 212 (peptide)
peptide: Ac-[Pen][NMeR]SDTL[Pen][2Nal]E[dK]-NH2
modifications: disulfide 1-7 (inferred); also: homodimer via DIG
With B18 the IC50 [2] was 70 nM, the IC50 [3] was 2 nM and the “Cell Adhesion α4β7 Mouse IC50” value [5] was 2.5 nM. For the same binder, the “Cell Adhesion α4β7 IC50” value [6] was 2.5 nM and the “Cell Adhesion α4β1 IC50” value [7] was > 100000 nM.

B19: SEQ ID NO 38 (peptide)
peptide: Ac-[Pen][NMeR]SDTL[Pen][1Nal][dE][dNMeK]-NH2
modifications: disulfide 1-7 (inferred); also: homodimer via DIG linker
With B19 the “α4β7 cell (Hu) IC50” value [1] was ≤ 10 nM, the IC50 [2] was > 100 nM and the IC50 [3] was < 10 nM.

— US20160159862A1 (PROTAGONIST THERAPEUTICS, published 2016)
